Measured values taken from patent US20130012451.

Target: CD44, P16070
Sequence (P16070 other isoform, or with tags, fused parts or gaps): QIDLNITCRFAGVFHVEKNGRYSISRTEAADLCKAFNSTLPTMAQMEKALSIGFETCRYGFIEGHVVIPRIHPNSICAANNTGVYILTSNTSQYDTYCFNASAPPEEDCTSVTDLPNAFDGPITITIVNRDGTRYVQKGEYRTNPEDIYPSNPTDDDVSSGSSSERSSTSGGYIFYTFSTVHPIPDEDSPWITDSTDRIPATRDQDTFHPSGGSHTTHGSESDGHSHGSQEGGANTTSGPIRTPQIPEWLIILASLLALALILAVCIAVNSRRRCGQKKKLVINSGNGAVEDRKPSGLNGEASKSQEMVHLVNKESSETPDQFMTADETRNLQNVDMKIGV

B1: Matrix Metalloproteinase-9 (MMP-9), wild type (protein)
chain: APRQRQSTLVLFPGDLRTNLTDRQLAEEYLYRYGYTRVAEMRGESKSLGPALLLLQKQLSLPETGELDSATLKAMRTPRCGVPDLGRFQTFEGDLKWHHHNITYWIQNYSEDLPRAVIDDAFARAFALWSAVTPLTFTRVYSRDADIVIQFGVAEHGDGYPFDGKDGLLAHAFPPGPGIQGDAHFDDDELWSLGKGVVVPTRFGNADGAACHFPFIFEGRSYSACTTDGRSDGLPWCSTTANYDTDDRFGFCPSERLYTQDGNADGKPCQFPFIFQGQSYSACTTDGRSDGYRWCATTANYDRDKLFGFCPTRADSTVMGGNSAGELCVFPFTFLGKEYSTCTSEGRGDGRLWCATTSNFDSDKKWGFCPDQGYSLFLVAAHEFGHALGLDHSSVPEALMYPMYRFTEGPPLHKDDVNGIRHLYGPRPEPEPRPPTTTTPQPTAPPTVCPTGPPTVHPSERPTAGPTGPPSAGPTGPPTAGPSTATTVPLSPVDDACNVNIFDAIAEIGNQLYLFKDGKYWRFSEGRGSRPQGPFLIADKWPALPRKLDSVFEERLSKKLFFFSGRQVWVYTGASVLGPRRLDKLGLGADVAQVTGALRSGRGKMLLFSGRRLWRFDVKAQMVDPRSASEVDRMFPGVPLDTHDVFQYREKAYFCQDRFYWRVSSRSELNQVDQVGYVTYDILQCPED
In the case of B1, the “phosphorylation of EGFR, western blotting” value is reported as “expression of MMP-9 in wild type COS-1 cells resulted in increased phosphorylation of EGFR as compared to vector control. This activation of EGFR did not occurred in CD44-silenced COS-1 cells transfected with MMP-9 cDNA”.
